Laboratory results published in US20200040086A1 (BERLIN CHEMIE, published 2020).

What was measured:
[1] = target: T1, LY75 (DEC-205) on COLO205 cells (human, UniProt O60449 28-1722); experiment: competitive FACS on COLO205 cells
T1 construct: also called Lymphocyte antigen 75
Protocol: COLO205 cells (ATCC, catalog # CCL-222) were detached from tissue culture flasks with Cell Stripper (Cellgro, catalog # MT-25-056CI). Cells were washed and resuspended in FACS buffer (PBS+2% FBS), neutralized with growth media, and counted. Cells were plated at 50,000 cells per well in a V Bottom 96-well plate. Cells were washed once with FACS buffer (PBS (Fisher, catalog # SH30028-03)+2% FBS). An anti-LY75-mAb (Selected from Example 1) or LY75_A1 was added to wells starting at 250 nM and diluted serially 3 fold and applied to the relevant wells for 45 minutes on ice. Test wells that required single or multiple staining steps were left in FACS buffer as appropriate to ensure the final staining was completed simultaneously for all conditions tested. Two wells were left unstained in FACS buffer as controls.
After the incubation with blocking antibody, cells were washed twice in FACS buffer. The cells were resuspended in FACS buffer containing the anti-LY75-mAb conjugated to MCC-DM1 (1 nM) and incubated on ice for 45 minutes. The cells were washed as above and resuspended in FACS buffer plus 1 ug/ml mouse anti-maytansine antibody and incubated in ice for 45 minutes. […] Mean fluorescence intensity of each sample was determined using a Guava EasyCyte Plus HT Flow Cytometer (96 well plate formats) and the raw data was analyzed using the Guava Cytosoft.

IIPKTLTW = target: T2, IIPKTLTW; experiment: peptide microarray of 8mer LY75 peptides
T2 construct: 8mer of LY75 on the peptide microarray, chart Region 7
T2 peptide: IIPKTLTW

NLYKIIPK = target: T3, NLYKIIPK; experiment: peptide microarray of 8mer LY75 peptides
T3 construct: 8mer of LY75 on the peptide microarray, chart Region 7
T3 peptide: NLYKIIPK

PKTLTWHS = target: T4, PKTLTWHS; experiment: peptide microarray of 8mer LY75 peptides
T4 construct: 8mer of LY75 on the peptide microarray, chart Region 7
T4 peptide: PKTLTWHS

KIIPKTLT = target: T5, KIIPKTLT; experiment: peptide microarray of 8mer LY75 peptides
T5 construct: 8mer of LY75 on the peptide microarray, chart Region 7
T5 peptide: KIIPKTLT

KTLTWHSA = target: T6, KTLTWHSA; experiment: peptide microarray of 8mer LY75 peptides
T6 construct: 8mer of LY75 on the peptide microarray, chart Region 7
T6 peptide: KTLTWHSA

[2] = target: T7, LY75 tryptic peptide GWHFYDDR (765-772) (human); experiment: peptide microarray of 8mer LY75 peptides (array peptide with the letters of m17), LY75_A1 at 1 µg/mL, anti-human IgG Alexa 647
T7 construct: Tryptic peptide of recombinant LY75 identified by mass spectrometry after pull down
T7 peptide: GWHFYDDR
Protocol: (§1) The peptide microarray analysis was performed by LC Sciences, Houston Tex., in brief the method comprised the following steps:—Contiguous 8mer peptides of LY75 protein having […] spanning residues 216 to 1666 of the full length LY75 protein were synthesized and immobilized on a microarray chip. The chip comprised three panels such that the experiment was performed in triplicate. The microarray was addressed with LY75_A1 to identify the peptides to which the antibody bound. The binding assay was performed under the following conditions:—
(§2) The microarray comprising the contiguous peptides in triplicate was washed with 1 mL of binding buffer at 4° C. for 20 min. It was then incubated with 1 μg/mL LY75_A1 in binding buffer (pH 7.0) at 4° C. for 2 hrs. The array was again washed with 0.5 mL of washing buffer at 4° C. for 30 min then incubated with 25 ng/mL anti-human IgG Alexa 647 conjugate in binding buffer (pH 7.0) at 4° C. for 1 hr. The array was again washed with 0.5 mL of washing buffer at 4° C. for 30 min.

[3] = target: Contiguous 8mer peptides of LY75 protein spanning residues 216 to 1666 of the full length LY75 protein; experiment: peptide microarray, 1 ug/mL LY75_A1, anti-human IgG Alexa 647
CQKYSEVK = target: T8, CQKYSEVK; experiment: peptide microarray of 8mer LY75 peptides
T8 construct: 8mer of LY75 on the peptide microarray, chart Region 6
T8 peptide: CQKYSEVK

RHFVSLCQ = target: T9, RHFVSLCQ; experiment: peptide microarray of 8mer LY75 peptides
T9 construct: 8mer of LY75 on the peptide microarray, chart Region 6
T9 peptide: RHFVSLCQ

QKYSEVKS = target: T10, QKYSEVKS; experiment: peptide microarray of 8mer LY75 peptides
T10 construct: 8mer of LY75 on the peptide microarray, chart Region 6
T10 peptide: QKYSEVKS

LCQKYSEV = target: T11, LCQKYSEV; experiment: peptide microarray of 8mer LY75 peptides
T11 construct: 8mer of LY75 on the peptide microarray, chart Region 6
T11 peptide: LCQKYSEV

SLCQKYSE = target: T12, SLCQKYSE; experiment: peptide microarray of 8mer LY75 peptides
T12 construct: 8mer of LY75 on the peptide microarray, chart Region 6
T12 peptide: SLCQKYSE

SLSCYKVF = target: T13, SLSCYKVF; experiment: peptide microarray of 8mer LY75 peptides, LY75_A1 at 1 µg/mL, anti-human IgG Alexa 647
T13 construct: 8mer of LY75 on the peptide microarray, chart Region 2
T13 peptide: SLSCYKVF
Protocol: as §1, §2

PWRRGWHF = target: T14, PWRRGWHF; experiment: as above
T14 construct: 8mer of LY75 on the peptide microarray, chart Region 3
T14 peptide: PWRRGWHF
Protocol: as §1, §2

WIQYKGHC = target: T15, WIQYKGHC; experiment: peptide microarray of 8mer LY75 peptides
T15 construct: 8mer of LY75 on the peptide microarray, chart Region 10
T15 peptide: WIQYKGHC

[4] = target: T16, LY75 Region 7 (aa1107-1118) (human); experiment: peptide microarray; signal above the cut off of 3000
T16 construct: Region made up of overlapping 8mers on the array
T16 peptide: TVKYLNNLYKII

[5] = target: T17, LY75 Region 5 (aa1029-1040) (human); experiment: as above
T17 construct: Region made up of overlapping 8mers on the array
T17 peptide: RELTYSNFHPLL

[6] = target: T18, LY75 Region 4 (aa883-901) (human); experiment: as above
T18 construct: Region made up of overlapping 8mers on the array
T18 peptide: DDHFTYSRYPWHRFPVTFG

[7] = target: T19, LY75 Region 3 (aa761-780) (human); experiment: as above
T19 construct: Region made up of overlapping 8mers on the array
T19 peptide: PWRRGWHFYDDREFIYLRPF

[8] = target: T20, LY75 Region 6 (aa1077-1093) (human); experiment: as above
T20 construct: Region made up of overlapping 8mers on the array
T20 peptide: FTSCSERHFVSLCQKYS

[9] = target: Contiguous 8mer peptides of LY75 protein spanning residues 216 to 1666 of the full length LY75 protein; experiment: peptide microarray, 1 ug/mL LY75_A1, anti-human IgG Alexa 647; the peptide is not named

T1 sequence (O60449 28-1722 limits assumed): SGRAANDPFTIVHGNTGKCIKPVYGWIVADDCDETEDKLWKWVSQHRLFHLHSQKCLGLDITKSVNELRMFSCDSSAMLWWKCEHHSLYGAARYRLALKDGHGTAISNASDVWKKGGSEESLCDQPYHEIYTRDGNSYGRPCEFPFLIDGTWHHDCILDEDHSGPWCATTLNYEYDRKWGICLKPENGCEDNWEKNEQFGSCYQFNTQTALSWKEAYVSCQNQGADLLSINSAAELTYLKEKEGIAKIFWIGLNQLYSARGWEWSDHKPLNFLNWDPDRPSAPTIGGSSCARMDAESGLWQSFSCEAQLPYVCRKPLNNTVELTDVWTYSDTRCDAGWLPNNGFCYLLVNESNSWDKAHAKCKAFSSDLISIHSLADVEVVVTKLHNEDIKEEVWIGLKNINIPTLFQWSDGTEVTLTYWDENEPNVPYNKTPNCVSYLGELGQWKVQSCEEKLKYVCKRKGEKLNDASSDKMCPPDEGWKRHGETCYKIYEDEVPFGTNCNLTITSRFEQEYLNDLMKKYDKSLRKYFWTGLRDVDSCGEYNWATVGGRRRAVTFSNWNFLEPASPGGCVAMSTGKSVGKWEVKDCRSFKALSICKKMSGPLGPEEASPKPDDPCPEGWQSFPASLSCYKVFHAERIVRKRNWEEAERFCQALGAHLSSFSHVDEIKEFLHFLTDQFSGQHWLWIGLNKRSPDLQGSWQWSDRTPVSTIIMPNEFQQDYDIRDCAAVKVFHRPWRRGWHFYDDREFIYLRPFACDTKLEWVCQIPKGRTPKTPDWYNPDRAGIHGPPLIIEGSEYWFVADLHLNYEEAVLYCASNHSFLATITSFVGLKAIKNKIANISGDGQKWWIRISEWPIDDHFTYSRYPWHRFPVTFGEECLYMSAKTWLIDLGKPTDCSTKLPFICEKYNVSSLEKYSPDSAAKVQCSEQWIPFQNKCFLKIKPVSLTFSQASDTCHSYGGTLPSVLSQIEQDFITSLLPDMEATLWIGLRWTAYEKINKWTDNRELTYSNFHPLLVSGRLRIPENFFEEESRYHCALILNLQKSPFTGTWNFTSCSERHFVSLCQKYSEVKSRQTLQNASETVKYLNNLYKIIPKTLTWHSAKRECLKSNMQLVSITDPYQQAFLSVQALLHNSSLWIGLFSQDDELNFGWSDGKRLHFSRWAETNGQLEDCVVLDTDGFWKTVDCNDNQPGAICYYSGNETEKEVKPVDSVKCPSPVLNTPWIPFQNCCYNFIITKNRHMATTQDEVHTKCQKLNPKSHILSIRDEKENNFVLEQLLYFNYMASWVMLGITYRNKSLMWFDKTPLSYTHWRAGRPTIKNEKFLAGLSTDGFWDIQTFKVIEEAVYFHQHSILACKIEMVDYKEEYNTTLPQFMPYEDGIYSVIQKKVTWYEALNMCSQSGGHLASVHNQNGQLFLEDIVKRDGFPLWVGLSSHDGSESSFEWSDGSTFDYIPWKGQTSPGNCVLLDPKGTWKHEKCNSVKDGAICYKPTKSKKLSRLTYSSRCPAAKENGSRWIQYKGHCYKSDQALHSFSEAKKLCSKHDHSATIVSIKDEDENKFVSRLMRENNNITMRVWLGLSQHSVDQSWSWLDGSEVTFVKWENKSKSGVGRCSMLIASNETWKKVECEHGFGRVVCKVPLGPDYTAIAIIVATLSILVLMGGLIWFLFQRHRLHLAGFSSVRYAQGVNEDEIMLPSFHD

B1: LY75_A1 (antibody, V domains shown)
VH: EVQLVESGGGLVKPGGSLRLSCAASGFTYSNAWMSWVRQAPGKGLEWVGRIKSKTDGGTTDYAAPVQGRFTISRDDSKNTLYLQMNSLKTEDTAVYYCTIFGVVSFDYWGQGTLVTVSS
VL: DVQMTQSPSSLSASVGDRVTITCRASQSISDYLSWYQQRPGKAPNLLIYAASNLKTGVPSRFSGSGSGTDFTLTISTLQPEDFATYYCQQSYRSPWTFGQGTKVEIKR
notes: detected with anti-human IgG in the microarray; also called antibody LY75_A1; LY75_A1 monoclonal antibody
[1]
  binding result: binds
IIPKTLTW
  binding result: no binding (tested: 1 µg/mL)
NLYKIIPK
  binding result: no binding (tested: 1 µg/mL)
PKTLTWHS
  binding result: no binding (tested: 1 µg/mL)
KIIPKTLT
  binding result: no binding (tested: 1 µg/mL)
KTLTWHSA
  binding result: no binding (tested: 1 µg/mL)
[2]
  binding result: binds
[3]
  average signal for all spots on the array (signal intensity (scale 1-65535)): 885
CQKYSEVK
  binding result: no binding (tested: 1 µg/mL)
RHFVSLCQ
  binding result: no binding (tested: 1 µg/mL)
QKYSEVKS
  binding result: no binding (tested: 1 µg/mL)
LCQKYSEV
  binding result: no binding (tested: 1 µg/mL)
SLCQKYSE
  binding result: no binding (tested: 1 µg/mL)
SLSCYKVF
  binding result: binds
PWRRGWHF
  binding result: binds
WIQYKGHC
  binding result: no binding (tested: 1 µg/mL)
[4]
  binding result: binds
[5]
  binding result: binds
[6]
  binding result: binds
[7]
  binding result: binds
[8]
  binding result: binds
[9]
  maximum signal (signal intensity (scale 1-65535)): 25000
